Results: paper PMC6521605, “Structural insights into nanoRNA degradation by human Rexo2” (RNA, 2019)
Positions count from the first letter of the chain named. In names and notes the source's numbering stands.

Legend:
[1] = biological target: T1, Rexo2 H194A H194A (Homo sapiens) (UniProt Q9Y3B8); test: fluorescence polarization; conditions: 50 mM EDTA, Hill coefficient 2.3, FP: 10 nM Cy3-oligonucleotide, 50 mM Tris-HCl pH 7.5, 50 mM NaCl, 15 min at 25 C, crystals: 0.2 M ammonium citrate dibasic, 20% PEG 3350, pH 5.1 …
T1 sequence: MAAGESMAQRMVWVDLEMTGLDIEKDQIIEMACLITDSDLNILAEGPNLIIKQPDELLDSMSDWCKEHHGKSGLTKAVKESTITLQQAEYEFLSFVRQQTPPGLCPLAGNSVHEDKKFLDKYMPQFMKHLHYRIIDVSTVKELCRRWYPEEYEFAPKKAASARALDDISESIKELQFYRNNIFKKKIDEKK

[2] = biological target: the molecule itself; test: SEC-MALS; purified His-tag-free Rexo2 (residues 33-223); MW of ~44 kDa against 22.436 kDa calculated for a protomer; conditions not given
Rexo2 D199A = biological target: T2, Rexo2 D199A (Homo sapiens, UniProt Q9Y3B8 33-223, D199A); test: X-ray crystallography; 2 Mg2+ in active site; pH 5.1; FP: 10 nM Cy3-oligonucleotide, 50 mM Tris-HCl pH 7.5, 50 mM NaCl, 50 mM EDTA, 15 min at 25 C; crystals: 0.2 M ammonium citrate dibasic, 20% PEG 3350, pH 5.1, room temperature; conditions: protein: recombinant; tags: N-terminal 6xHis removed by thrombin; chain copies: 2; single strand
T2 sequence: T1 sequence with A162H, D167A

Rexo2 H194A [3] = biological target: T3, Rexo2 H194A (Homo sapiens, UniProt Q9Y3B8 33-223, H194A); test: fluorescence polarization; 50 mM EDTA; FP: 10 nM Cy3-oligonucleotide, 50 mM Tris-HCl pH 7.5, 50 mM NaCl, 50 mM EDTA, 15 min at 25 C; crystals: 0.2 M ammonium citrate dibasic, 20% PEG 3350, pH 5.1, room temperature; conditions: protein: recombinant; tags: N-terminal 6xHis removed by thrombin; chain copies: 2; label: 5'-Cy3; single strand
T3 sequence: T1 sequence

Rexo2 wild type = biological target: T4, Rexo2 wild type (Homo sapiens, UniProt Q9Y3B8 33-223); test: X-ray crystallography; no Mg2+ added, two endogenous Mg2+ at partial occupancy; pH 5.1; FP: 10 nM Cy3-oligonucleotide, 50 mM Tris-HCl pH 7.5, 50 mM NaCl, 50 mM EDTA, 15 min at 25 C; crystals: 0.2 M ammonium citrate dibasic, 20% PEG 3350, pH 5.1, room temperature; conditions: protein: recombinant; tags: N-terminal 6xHis removed by thrombin; chain copies: 2; single strand
T4 sequence: T1 sequence with A162H

Rexo2 H194A [4] = biological target: T3, Rexo2 H194A; test: fluorescence polarization; 50 mM EDTA; Hill coefficient 1.4; FP: 10 nM Cy3-oligonucleotide, 50 mM Tris-HCl pH 7.5, 50 mM NaCl, 50 mM EDTA, 15 min at 25 C; crystals: 0.2 M ammonium citrate dibasic, 20% PEG 3350, pH 5.1, room temperature; conditions: protein: recombinant; tags: N-terminal 6xHis removed by thrombin; chain copies: 2; label: 5'-Cy3; single strand
Rexo2 H194A [5] = biological target: T3, Rexo2 H194A; test: fluorescence polarization; 50 mM EDTA; Hill coefficient 3.5; Results sentence calls it 12-nt, legend and Methods 11-nt; FP: 10 nM Cy3-oligonucleotide, 50 mM Tris-HCl pH 7.5, 50 mM NaCl, 50 mM EDTA, 15 min at 25 C; crystals: 0.2 M ammonium citrate dibasic, 20% PEG 3350, pH 5.1, room temperature; conditions: protein: recombinant; tags: N-terminal 6xHis removed by thrombin; chain copies: 2; label: 5'-Cy3; single strand

Q: For 2-nt RNA A2, which Kd [1] is on record?
A: 24.4 nM

B1: human RNA exoribonuclease 2 (Rexo2), wild type, residues 33-223 (enzyme, UniProt Q9Y3B8 33-223, looked up)
chain: T1 sequence with A162H
notes: His tag removed with Thrombin (pET28a, NdeI/SalI); a few vector residues may be left at the N-terminus after cleavage (surmise); Calculated MW of a protomer 22.436 kDa; also called wild-type Rexo2; small fragment nuclease; source: E. coli BL21-CodonPlus (DE3) RIPL, purified (HisTrap HP, Thrombin, HisTrap flow-through, Superdex 75); not shown: His6, N-terminal, cleaved
Q: B1 was tested. Which “stoichiometry N” value [2] did it give?
A: 2

B2: human Rexo2-H194A mutant, residues 33-223 (enzyme, UniProt Q9Y3B8 33-223, looked up)
chain: T1 sequence
notes: human Rexo2, residues 33-223, general base residue H194 replaced by Ala; Made by site-directed mutagenesis from the wild-type construct; PDB 6J7Y holds the wild-type parent; also called H194A Rexo2 mutant; source: E. coli BL21-CodonPlus (DE3) RIPL, purified (HisTrap HP, Thrombin, HisTrap flow-through, Superdex 75); not shown: His6, N-terminal, cleaved
Q: Which “stoichiometry N” value [2] does the source give for B2 here?
A: 2

B3: human Rexo2-D199A mutant, residues 33-223 (enzyme, UniProt Q9Y3B8 33-223, looked up)
chain: T1 sequence with A162H, D167A
notes: Made by site-directed mutagenesis from the wild-type construct; PDB 6J7Y holds the wild-type parent; source: E. coli BL21-CodonPlus (DE3) RIPL, purified (HisTrap HP, Thrombin, HisTrap flow-through, Superdex 75); not shown: His6, N-terminal, cleaved
Q: How did the “stoichiometry N” value [2] turn out when B3 was run?
A: 2

Q: Does UUUUUUUUUUUU (ssRNA) [U12 RNA] bind (Rexo2 D199A)?
A: binds

Q: For TTT (ssDNA) [3-nt DNA T3], which Kd (Rexo2 H194A [3]) is on record?
A: 29.9 nM

Q: Does TTTTT (ssDNA) [T5 DNA (crystal)] bind (Rexo2 wild type)?
A: binds

Q: How did the Kd (Rexo2 H194A [3]) turn out when TTTTT (ssDNA) [5-nt DNA T5 (Cy3)] was run?
A: 51.8 nM

Q: How did the Kd (Rexo2 H194A [4]) turn out when AAAAA (ssRNA) [5-nt RNA A5] was run?
A: 52.1 nM

Q: Does TTTTTTTTTT (ssDNA) [T10 DNA (crystal)] bind (Rexo2 D199A)?
A: binds

Q: AGCGCAGUACC (ssRNA) [11-nt RNA] was tested. Which Kd (Rexo2 H194A [5]) did it give?
A: 44.3 nM

Q: How did the Kd (Rexo2 H194A [3]) turn out when TTTTTTTTTTTT (ssDNA) [12-nt DNA T12] was run?
A: 52.2 nM
